The values that follow come from publication PMC7047619 (Arteriosclerosis, thrombosis, and vascular biology, 2020).

In this assay the target is wild-type αIIbβ3 on HEK 293 cells (Homo sapiens, UniProt P08514;P05106). Description: flow cytometry on cells. On the technique in general: In flow cytometry, cells or beads pass a laser one at a time.

B1: murine mAb 7E3 (antibody, V domains shown)
VH: EVQLQQSGTVLARPGASVKMSCEASGYTFTNYWMHWVKQRPGQGLEWIGAIYPGNSDTSYIQKFKGKAKLTAVTSTTSVYMELSSLTNEDSAVYYCTLYDGYYVFAYWGQGTLVTVSA
VL: EIVLTQSPVTLSVTPGDSVSLSCRASRDISNNLHWFQQTSHESPRLLIKYASQSMSGIPSRFSGSGSGTDFTLSINSVETEDFGMYFCQQTNSWPYTFGGGTKLEIK
On to B1, for which the binding result is listed as “binds”.

B2: abciximab (Fab, V domains shown)
VH: EVQLQQSGTVLARPGASVKMSCEASGYTFTNYWMHWVKQRPGQGLEWIGAIYPGNSDTSYIQKFKGKAKLTAVTSTTSVYMELSSLTNEDSAVYYCTLYDGYYVFAYWGQGTLVTVSA
VL: EIVLTQSPVTLSVTPGDSVSLSCRASRDISNNLHWFQQTSHESPRLLIKYASQSMSGIPSRFSGSGSGTDFTLSINSVETEDFGMYFCQQTNSWPYTFGGGTKLEIK
For B2, the binding result is “binds”.
